One block for each binder: values may come before it. Starred links: 1 amine or outer side, 2 acyl side, 3 side chain; linkers in the order of their positions; H or OH if unused. Non-standard residues stand in square brackets, D forms with d. Groups on a side chain read outwards from the residue. *: point of attachment. C20 diacid = O=C(O)CCCCCCCCCCCCCCCCCCC(=O)*; γGlu = O=C(O)[C@H](CCC(=O)[*:2])N[*:1]; AEEA = NCCOCCOCC(=O)O; Aib = CC(C)(N)C(=O)O
What was measured:
[1] = molecular target: Human AMY1 receptor (amylin receptor 1) (human), P30988; assay: cell-based or functional assay
Sequence of Human AMY1 receptor (amylin receptor 1) (human), P30988 (P30988 25-474, chain 1 of 2): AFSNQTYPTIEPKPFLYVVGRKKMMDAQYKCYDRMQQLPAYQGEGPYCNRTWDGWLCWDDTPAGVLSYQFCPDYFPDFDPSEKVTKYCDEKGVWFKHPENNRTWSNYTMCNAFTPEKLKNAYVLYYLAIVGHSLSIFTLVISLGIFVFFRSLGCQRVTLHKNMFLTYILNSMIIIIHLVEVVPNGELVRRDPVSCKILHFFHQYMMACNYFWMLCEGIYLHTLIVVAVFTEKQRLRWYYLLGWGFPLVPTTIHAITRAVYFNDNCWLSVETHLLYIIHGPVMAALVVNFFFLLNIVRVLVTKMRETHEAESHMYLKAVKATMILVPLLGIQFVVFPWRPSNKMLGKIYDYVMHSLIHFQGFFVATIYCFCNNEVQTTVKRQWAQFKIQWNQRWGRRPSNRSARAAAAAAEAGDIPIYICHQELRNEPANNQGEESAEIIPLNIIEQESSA
Sequence of Human AMY1 receptor (amylin receptor 1) (human), P30988 (O60894 27-148, chain 2 of 2, further chain): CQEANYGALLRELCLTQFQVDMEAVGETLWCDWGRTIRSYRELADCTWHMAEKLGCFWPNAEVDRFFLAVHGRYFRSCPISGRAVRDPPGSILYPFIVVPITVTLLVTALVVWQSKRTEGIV

[2] = molecular target: Human CT receptor (calcitonin receptor) (human), P30988; assay: cell-based or functional assay
Sequence of Human CT receptor (calcitonin receptor) (human), P30988 (P30988 25-474): as the sequence (P30988 25-474, chain 1 of 2) above

- hAMY1 cAMP EC50 (pM) [1]: 49.4 pM
- hCT cAMP EC50 (pM) [2]: 40.9 pM
B1: Compound II (peptide)
peptide: Ac-ASHLSTAVLGK([AEEA-AEEA-γGlu-C20 diacid])LS[Aib]ELHKLEDYPRTDVGAESP-NH2
SMILES: CC(=O)N[C@@H](C)C(=O)N[C@@H](CO)C(=O)N[C@@H](Cc1c[nH]cn1)C(=O)N[C@@H](CC(C)C)C(=O)N[C@@H](CO)C(=O)N[C@H](C(=O)N[C@@H](C)C(=O)N[C@H](C(=O)N[C@@H](CC(C)C)C(=O)NCC(=O)N[C@@H](CCCCNC(=O)COCCOCCNC(=O)COCCOCCNC(=O)CC[C@H](NC(=O)CCCCCCCCCCCCCCCCCCC(=O)O)C(=O)O)C(=O)N[C@@H](CC(C)C)C(=O)N[C@@H](CO)C(=O)NC(C)(C)C(=O)N[C@@H](CCC(=O)O)C(=O)N[C@@H](CC(C)C)C(=O)N[C@@H](Cc1c[nH]cn1)C(=O)N[C@@H](CCCCN)C(=O)N[C@@H](CC(C)C)C(=O)N[C@@H](CCC(=O)O)C(=O)N[C@@H](CC(=O)O)C(=O)N[C@@H](Cc1ccc(O)cc1)C(=O)N1CCC[C@H]1C(=O)N[C@@H](CCCNC(=N)N)C(=O)N[C@H](C(=O)N[C@@H](CC(=O)O)C(=O)N[C@H](C(=O)NCC(=O)N[C@@H](C)C(=O)N[C@@H](CCC(=O)O)C(=O)N[C@@H](CO)C(=O)N1CCC[C@H]1C(N)=O)C(C)C)[C@@H](C)O)C(C)C)[C@@H](C)O

- hAMY1 cAMP EC50 (pM) [1]: 49.3 pM
- hCT cAMP EC50 (pM) [2]: 31.7 pM
B2: Compound I (peptide)
peptide: Ac-ASHLSTAVLGKLS[Aib]ELHKLEDYPRTDVGAESP-NH2
SMILES: CC(=O)N[C@@H](C)C(=O)N[C@@H](CO)C(=O)N[C@@H](Cc1c[nH]cn1)C(=O)N[C@@H](CC(C)C)C(=O)N[C@@H](CO)C(=O)N[C@H](C(=O)N[C@@H](C)C(=O)N[C@H](C(=O)N[C@@H](CC(C)C)C(=O)NCC(=O)N[C@@H](CCCCN)C(=O)N[C@@H](CC(C)C)C(=O)N[C@@H](CO)C(=O)NC(C)(C)C(=O)N[C@@H](CCC(=O)O)C(=O)N[C@@H](CC(C)C)C(=O)N[C@@H](Cc1c[nH]cn1)C(=O)N[C@@H](CCCCN)C(=O)N[C@@H](CC(C)C)C(=O)N[C@@H](CCC(=O)O)C(=O)N[C@@H](CC(=O)O)C(=O)N[C@@H](Cc1ccc(O)cc1)C(=O)N1CCC[C@H]1C(=O)N[C@@H](CCCNC(=N)N)C(=O)N[C@H](C(=O)N[C@@H](CC(=O)O)C(=O)N[C@H](C(=O)NCC(=O)N[C@@H](C)C(=O)N[C@@H](CCC(=O)O)C(=O)N[C@@H](CO)C(=O)N1CCC[C@H]1C(N)=O)C(C)C)[C@@H](C)O)C(C)C)[C@@H](C)O

— patent US20230190944A1
